# In patent US20160115247A1, “SINGLE DOMAIN ANTIBODIES DIRECTED AGAINST INTRACELLULAR ANTIGENS” (SINGH BIOTECHNOLOGY, LLC, priority 2014, published 2016):
# Several values for one entry are separate records, joined by “and”; a condition that tells them apart may be missing. Equal entries are not always repeated.
# Columns and labels:
# MDA-MB-231 cells = assay: MTT proliferation assay, MDA-MB-231; type: cell-based, human;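 note: human cancer cells kept at 37 °C in humidified 5% CO2, with treated groups compared against a vehicle control group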
# PANC-1 cells = assay: MTT proliferation assay, PANC-1; type: cell-based, human; settings: for Mean Absorbance (570 nM) ± S.E.: single experiments 1-3
# TNF-alpha = biological target: T1, TNF-alpha (Homo sapiens, UniProt P01375); assay: Inhibition of TNF-alpha cytotoxicity in U937 cells; type: cell-based; settings: constant dose of TNF-alpha at EC50; for inhibition of killing of U937 by TNF-alpha (in words): FIG. 14
# T1 construct: host or cells: added to U937 cells
# T1 sequence (P01375 77-233 limits assumed): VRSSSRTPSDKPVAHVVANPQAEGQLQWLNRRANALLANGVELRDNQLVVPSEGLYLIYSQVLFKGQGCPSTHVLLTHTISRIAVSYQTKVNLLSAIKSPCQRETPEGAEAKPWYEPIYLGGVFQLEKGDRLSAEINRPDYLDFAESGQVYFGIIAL
molecule,measurement,setting,value
"B.VHH14: anti-STAT3 single-domain antibody VHH14, SEQ ID NO. 4 (protein, camelid) VHH: QVQLVESGGGSVQAGGSLRLSCVASTYTGCMGWFRQAPGKEREGVAALSSRGFAGHYTDSVKGRFSISRDYVKNAVYLQMNTVKPEDAAMYYCAAREGWECGETWLDRTAGGHTYWGQGTLVTVSS",% Inhibition of cell proliferation,"MDA-MB-231 cells; 3 days of treatment, 10.0 μg/ml",23.1%
same,% Inhibition of cell proliferation,"MDA-MB-231 cells; 3 days of treatment, 100.0 μg/ml",57.0%
same,% Inhibition of cell proliferation,"MDA-MB-231 cells; 5 days of treatment, 0.5 μg/ml",0%
same,% Inhibition of cell proliferation,"MDA-MB-231 cells; 5 days of treatment, 1.0 μg/ml",0%
same,% Inhibition of cell proliferation,"MDA-MB-231 cells; 5 days of treatment, 10.0 μg/ml",5.5%
same,% Inhibition of cell proliferation,"MDA-MB-231 cells; 5 days of treatment, 100.0 μg/ml",18.9%
same,Mean Absorbance (570 nM) ± S.E.,"MDA-MB-231 cells; Day 3 post treatment, 0.5 μg/ml",0.666 ± 0.022
same,Mean Absorbance (570 nM) ± S.E.,"MDA-MB-231 cells; Day 3 post treatment, 1.0 μg/ml",0.644 ± 0.045
same,Mean Absorbance (570 nM) ± S.E.,"MDA-MB-231 cells; Day 3 post treatment, 10.0 μg/ml",0.456 ± 0.048
same,Mean Absorbance (570 nM) ± S.E.,"MDA-MB-231 cells; Day 3 post treatment, 100 μg/ml",0.255 ± 0.005
same,Mean Absorbance (570 nM) ± S.E.,"MDA-MB-231 cells; Day 5 post treatment, 0.5 μg/ml",0.733 ± 0.038
same,Mean Absorbance (570 nM) ± S.E.,"MDA-MB-231 cells; Day 5 post treatment, 1.0 μg/ml",0.794 ± 0.023
same,Mean Absorbance (570 nM) ± S.E.,"MDA-MB-231 cells; Day 5 post treatment, 10.0 μg/ml",0.640 ± 0.011
same,Mean Absorbance (570 nM) ± S.E.,"MDA-MB-231 cells; Day 5 post treatment, 100 μg/ml",0.549 ± 0.023
same,"Mean Absorbance (570 nM) ± S.E., Overall Mean","MDA-MB-231 cells; Table 6, Day 3, 10.0 μg/ml",0.504 ± 0.021
same,Mean Absorbance (570 nM) ± S.E.,"MDA-MB-231 cells; Table 6, Day 3, 10.0 μg/ml, single experiments 1-4",0.456 ± 0.048 and 0.499 ± 0.018 and 0.502 ± 0.048 and 0.559 ± 0.041
same,"Mean Absorbance (570 nM) ± S.E., Overall Mean","MDA-MB-231 cells; Table 6, Day 3, 100 μg/ml",0.302 ± 0.043
same,Mean Absorbance (570 nM) ± S.E.,"MDA-MB-231 cells; Table 6, Day 3, 100 μg/ml, single experiments 1-4",0.255 ± 0.005 and 0.357 ± 0.019 and 0.308 ± 0.021 and 0.287 ± 0.021
same,"Mean Absorbance (570 nM) ± S.E., Overall Mean","MDA-MB-231 cells; Table 7, Day 5, 10.0 μg/ml",0.688 ± 0.131
same,"Mean Absorbance (570 nM) ± S.E., Overall Mean","MDA-MB-231 cells; Table 7, Day 5, 100 μg/ml",0.475 ± 0.0690
same,Overall Average % Inhibition,"MDA-MB-231 cells; post 3 days, 10.0 μg/ml",26.2%
same,Mean Growth Inhibition,"MDA-MB-231 cells; post 3 days, 10.0 μg/ml, single experiments 1-4",23.1% and 20.0% and 38.5% and 23.3%
same,Overall Average % Inhibition,"MDA-MB-231 cells; post 3 days, 100 μg/ml",55.7%
same,Mean Growth Inhibition,"MDA-MB-231 cells; post 3 days, 100 μg/ml, single experiments 1-4",57.0% and 42.8% and 62.3% and 60.6%
same,Overall Average % Inhibition,"MDA-MB-231 cells; post 5 days, 10.0 μg/ml",14.9%
same,Overall Average % Inhibition,"MDA-MB-231 cells; post 5 days, 100 μg/ml",38.6%
"H.VHH14: anti-STAT3 sdAb VHH14, SEQ ID NO. 4 (protein, camelid) VHH: QVQLVESGGGSVQAGGSLRLSCVASTYTGCMGWFRQAPGKEREGVAALSSRGFAGHYTDSVKGRFSISRDYVKNAVYLQMNTVKPEDAAMYYCAAREGWECGETWLDRTAGGHTYWGQGTLVTVSS","Mean Absorbance (570 nM) ± S.E., Overall Mean","PANC-1 cells; Day 3, 10.0 μg/ml",1.089 ± 0.085
same,Mean Absorbance (570 nM) ± S.E.,"PANC-1 cells; Day 3, 10.0 μg/ml",0.920 ± 0.133 and 1.183 ± 0.114 and 1.163 ± 0.044
same,"Mean Absorbance (570 nM) ± S.E., Overall Mean","PANC-1 cells; Day 3, 100 μg/ml",0.906 ± 0.054
same,Mean Absorbance (570 nM) ± S.E.,"PANC-1 cells; Day 3, 100 μg/ml",0.808 ± 0.239 and 0.993 ± 0.088 and 0.916 ± 0.088
same,"Mean Absorbance (570 nM) ± S.E., Overall Mean","PANC-1 cells; Day 5, 10.0 μg/ml",1.368 ± 0.247
same,Mean Absorbance (570 nM) ± S.E.,"PANC-1 cells; Day 5, 10.0 μg/ml",1.859 ± 0.033 and 1.165 ± 0.015 and 1.081 ± 0.103
same,"Mean Absorbance (570 nM) ± S.E., Overall Mean","PANC-1 cells; Day 5, 100 μg/ml",0.754 ± 0.333
"anti-TNF-alpha VHH69: anti-TNF-alpha sdAb, SEQ ID NO. 46 (protein, camelid) VHH: EVQLVESGGGSVLAGGSLRLSCVASGFTSRYNYMAWFRQAPGKEREGVATIGTASGSADYYGSVKDRFTISQDNAKNTVYLQMNSLKPEDTAMYYCAARTYGTISLTPSDYRYWGQGTLVTVSS",IC50 (inhibition of TNF-alpha cytotoxicity against U937),TNF-alpha,greater than 208.055 ug/ml
same,inhibition of killing of U937 by TNF-alpha (in words),TNF-alpha,inhibit killing of U937 by TNF-alpha
"anti-TNF-alpha VHH62: anti-TNF-alpha sdAb, SEQ ID NO. 47 (protein, camelid) VHH: QVQLVESGGGPVQAGETLRLSCTASGFTFAEADMGWYRQAPGHECELVSTITTEGITSEASSYYADSVRGRFTISRDNAKNMVYLQMNSLKPEDTAVYYCAPDPYAYSTYSDYCSWAQGTQGTLVTVSS",IC50 (inhibition of TNF-alpha cytotoxicity against U937),TNF-alpha,approximately 713.6 ug/ml
same,inhibition of killing of U937 by TNF-alpha (in words),TNF-alpha,inhibit killing of U937 by TNF-alpha
